Tests used:
SHP2-C SH2 = experiment: SH2 binding enrichment of the phosphorylated peptide, bacterial display (enrichment ratio); higher = better substrate or ligand; peptides without Tyr show the background
c-Src SH2 = experiment: as above
Grb2 SH2 = Grb2 SH2 (UniProt P62993); experiment: as above
Jak2 = Jak2 (UniProt O60674); experiment: phosphorylation enrichment, bacterial display (enrichment ratio); higher = better substrate or ligand; peptides without Tyr show the background
c-Abl (mouse) = experiment: as above
Hck = Hck (UniProt P08631); experiment: as above
Fer (mouse) = experiment: as above
FGFR1 = FGFR1 (UniProt P11362); experiment: as above
Sequence of FGFR1 (P11362 whole entry, looked up): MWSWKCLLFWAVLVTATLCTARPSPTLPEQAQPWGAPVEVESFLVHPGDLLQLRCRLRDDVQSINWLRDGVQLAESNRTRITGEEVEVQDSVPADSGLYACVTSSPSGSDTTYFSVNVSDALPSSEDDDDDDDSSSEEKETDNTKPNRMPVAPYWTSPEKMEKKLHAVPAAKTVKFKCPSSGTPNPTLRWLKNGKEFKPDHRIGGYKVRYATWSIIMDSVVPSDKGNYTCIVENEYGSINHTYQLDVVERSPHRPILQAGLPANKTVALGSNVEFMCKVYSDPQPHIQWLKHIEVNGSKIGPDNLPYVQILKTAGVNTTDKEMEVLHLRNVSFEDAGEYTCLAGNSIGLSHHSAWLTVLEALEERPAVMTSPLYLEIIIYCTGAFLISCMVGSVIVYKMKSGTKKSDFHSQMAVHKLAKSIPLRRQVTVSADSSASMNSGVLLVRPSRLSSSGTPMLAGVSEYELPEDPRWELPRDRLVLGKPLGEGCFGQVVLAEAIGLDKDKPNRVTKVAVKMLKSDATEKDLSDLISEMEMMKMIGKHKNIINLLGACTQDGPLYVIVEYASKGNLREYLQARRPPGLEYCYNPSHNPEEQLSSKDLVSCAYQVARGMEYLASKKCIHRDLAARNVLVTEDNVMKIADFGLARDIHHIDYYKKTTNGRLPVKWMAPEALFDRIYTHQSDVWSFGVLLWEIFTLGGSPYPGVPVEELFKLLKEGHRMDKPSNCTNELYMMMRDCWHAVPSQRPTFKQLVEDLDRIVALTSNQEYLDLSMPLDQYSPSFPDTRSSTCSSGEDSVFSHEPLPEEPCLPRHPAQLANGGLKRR

c-Src = experiment: as above
EPHB2 = EPHB2 (UniProt P29323); experiment: as above
Sequence of EPHB2 (P29323 whole entry, looked up): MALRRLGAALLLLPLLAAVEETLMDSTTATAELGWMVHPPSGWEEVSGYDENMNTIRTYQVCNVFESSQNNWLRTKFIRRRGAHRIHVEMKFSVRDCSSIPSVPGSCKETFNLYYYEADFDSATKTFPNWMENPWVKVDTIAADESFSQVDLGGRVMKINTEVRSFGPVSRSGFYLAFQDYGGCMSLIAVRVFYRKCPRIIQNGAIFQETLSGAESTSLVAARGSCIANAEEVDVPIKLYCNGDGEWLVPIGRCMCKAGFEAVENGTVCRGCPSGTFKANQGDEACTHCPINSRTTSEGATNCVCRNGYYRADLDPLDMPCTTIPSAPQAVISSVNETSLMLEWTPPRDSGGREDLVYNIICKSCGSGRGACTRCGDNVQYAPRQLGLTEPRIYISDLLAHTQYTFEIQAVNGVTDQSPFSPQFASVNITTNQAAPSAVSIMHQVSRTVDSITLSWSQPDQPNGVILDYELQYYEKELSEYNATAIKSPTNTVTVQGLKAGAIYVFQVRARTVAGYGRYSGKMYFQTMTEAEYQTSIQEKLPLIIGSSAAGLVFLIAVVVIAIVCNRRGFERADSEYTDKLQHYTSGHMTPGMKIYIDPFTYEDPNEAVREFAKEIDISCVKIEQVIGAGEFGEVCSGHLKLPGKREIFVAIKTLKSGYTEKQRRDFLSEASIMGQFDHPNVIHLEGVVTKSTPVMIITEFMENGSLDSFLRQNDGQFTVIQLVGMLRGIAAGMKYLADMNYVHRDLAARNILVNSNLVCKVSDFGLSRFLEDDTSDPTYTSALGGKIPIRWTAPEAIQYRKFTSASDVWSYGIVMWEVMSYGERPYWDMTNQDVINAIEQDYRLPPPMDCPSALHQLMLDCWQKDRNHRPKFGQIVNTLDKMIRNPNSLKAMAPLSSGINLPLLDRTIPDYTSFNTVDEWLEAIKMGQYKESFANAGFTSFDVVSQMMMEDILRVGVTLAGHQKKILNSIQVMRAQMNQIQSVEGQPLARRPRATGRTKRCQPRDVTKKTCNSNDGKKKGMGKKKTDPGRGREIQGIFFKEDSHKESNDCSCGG

AncSZ = experiment: as above
EPHB1 = EPHB1 (UniProt P54762); experiment: as above
Fyn = Fyn (UniProt P06241); experiment: as above
MERTK = MERTK (UniProt Q12866); experiment: as above
Sequence of MERTK (Q12866 whole entry, looked up): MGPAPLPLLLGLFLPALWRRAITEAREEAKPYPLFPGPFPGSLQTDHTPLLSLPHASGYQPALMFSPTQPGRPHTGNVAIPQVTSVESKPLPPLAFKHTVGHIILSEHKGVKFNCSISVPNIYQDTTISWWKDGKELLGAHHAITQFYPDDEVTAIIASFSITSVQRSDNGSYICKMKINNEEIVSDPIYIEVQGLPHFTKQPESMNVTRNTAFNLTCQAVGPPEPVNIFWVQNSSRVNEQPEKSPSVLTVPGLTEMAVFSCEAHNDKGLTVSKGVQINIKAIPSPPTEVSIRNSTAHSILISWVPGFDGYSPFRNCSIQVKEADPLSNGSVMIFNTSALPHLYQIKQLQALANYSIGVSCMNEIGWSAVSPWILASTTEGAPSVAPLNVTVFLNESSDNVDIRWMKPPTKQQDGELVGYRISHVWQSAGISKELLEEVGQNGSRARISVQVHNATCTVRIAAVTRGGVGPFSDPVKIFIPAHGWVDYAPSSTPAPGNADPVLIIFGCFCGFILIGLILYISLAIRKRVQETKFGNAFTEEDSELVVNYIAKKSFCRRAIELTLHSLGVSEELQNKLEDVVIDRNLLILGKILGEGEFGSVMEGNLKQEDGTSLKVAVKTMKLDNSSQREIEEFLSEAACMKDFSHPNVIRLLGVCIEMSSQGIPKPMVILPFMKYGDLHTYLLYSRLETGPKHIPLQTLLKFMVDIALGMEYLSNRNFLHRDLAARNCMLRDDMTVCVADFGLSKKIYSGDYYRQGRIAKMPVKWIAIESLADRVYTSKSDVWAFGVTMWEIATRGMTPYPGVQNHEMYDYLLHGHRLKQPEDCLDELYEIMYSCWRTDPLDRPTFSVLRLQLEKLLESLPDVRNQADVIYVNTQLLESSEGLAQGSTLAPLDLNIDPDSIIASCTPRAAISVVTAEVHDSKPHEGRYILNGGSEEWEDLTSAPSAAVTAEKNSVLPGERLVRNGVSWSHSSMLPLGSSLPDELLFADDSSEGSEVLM

Fes = Fes (UniProt P07332); experiment: as above
Sequence of Fes (P07332 whole entry, looked up): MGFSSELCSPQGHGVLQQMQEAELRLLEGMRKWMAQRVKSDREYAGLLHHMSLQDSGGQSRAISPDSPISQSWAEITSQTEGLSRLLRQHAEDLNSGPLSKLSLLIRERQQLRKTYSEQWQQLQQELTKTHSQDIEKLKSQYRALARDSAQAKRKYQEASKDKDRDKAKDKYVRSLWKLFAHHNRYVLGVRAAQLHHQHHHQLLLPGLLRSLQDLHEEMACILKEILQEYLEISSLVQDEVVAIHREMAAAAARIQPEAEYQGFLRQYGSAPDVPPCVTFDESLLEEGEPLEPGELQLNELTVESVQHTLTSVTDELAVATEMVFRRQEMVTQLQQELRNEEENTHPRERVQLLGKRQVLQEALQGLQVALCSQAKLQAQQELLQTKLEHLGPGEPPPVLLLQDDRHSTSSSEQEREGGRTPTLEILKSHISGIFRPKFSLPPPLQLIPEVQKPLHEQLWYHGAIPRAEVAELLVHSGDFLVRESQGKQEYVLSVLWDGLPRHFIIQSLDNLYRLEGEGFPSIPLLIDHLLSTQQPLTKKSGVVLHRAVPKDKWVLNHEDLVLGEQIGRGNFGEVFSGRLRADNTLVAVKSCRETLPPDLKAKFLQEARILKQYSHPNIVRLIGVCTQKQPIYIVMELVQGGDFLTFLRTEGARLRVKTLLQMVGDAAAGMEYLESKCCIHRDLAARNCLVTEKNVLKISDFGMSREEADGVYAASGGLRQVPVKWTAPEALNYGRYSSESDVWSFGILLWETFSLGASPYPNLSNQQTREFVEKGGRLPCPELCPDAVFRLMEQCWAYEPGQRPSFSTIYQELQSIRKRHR

FGFR3 = FGFR3 (UniProt P22607); experiment: as above
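Throughout, for SH2 binding enrichment of the phosphorylated peptide, bacterial display: peptide library displayed on the E. coli surface as eCPX fusions, selected cells deep-sequenced, score is each peptide's frequency after selection divided by its frequency in the input.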
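Throughout, for phosphorylation enrichment, bacterial display: 11-residue human phosphosite peptides and single-mutation variants displayed on the E. coli surface, counted by deep sequencing, each peptide's frequency after selection divided by its frequency in the unselected input library; frequency after pTyr selection over input frequency; kinase dosed for 20-30% of maximal phosphorylation in three min.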

Sequence of Jak2 (O60674 whole entry, looked up): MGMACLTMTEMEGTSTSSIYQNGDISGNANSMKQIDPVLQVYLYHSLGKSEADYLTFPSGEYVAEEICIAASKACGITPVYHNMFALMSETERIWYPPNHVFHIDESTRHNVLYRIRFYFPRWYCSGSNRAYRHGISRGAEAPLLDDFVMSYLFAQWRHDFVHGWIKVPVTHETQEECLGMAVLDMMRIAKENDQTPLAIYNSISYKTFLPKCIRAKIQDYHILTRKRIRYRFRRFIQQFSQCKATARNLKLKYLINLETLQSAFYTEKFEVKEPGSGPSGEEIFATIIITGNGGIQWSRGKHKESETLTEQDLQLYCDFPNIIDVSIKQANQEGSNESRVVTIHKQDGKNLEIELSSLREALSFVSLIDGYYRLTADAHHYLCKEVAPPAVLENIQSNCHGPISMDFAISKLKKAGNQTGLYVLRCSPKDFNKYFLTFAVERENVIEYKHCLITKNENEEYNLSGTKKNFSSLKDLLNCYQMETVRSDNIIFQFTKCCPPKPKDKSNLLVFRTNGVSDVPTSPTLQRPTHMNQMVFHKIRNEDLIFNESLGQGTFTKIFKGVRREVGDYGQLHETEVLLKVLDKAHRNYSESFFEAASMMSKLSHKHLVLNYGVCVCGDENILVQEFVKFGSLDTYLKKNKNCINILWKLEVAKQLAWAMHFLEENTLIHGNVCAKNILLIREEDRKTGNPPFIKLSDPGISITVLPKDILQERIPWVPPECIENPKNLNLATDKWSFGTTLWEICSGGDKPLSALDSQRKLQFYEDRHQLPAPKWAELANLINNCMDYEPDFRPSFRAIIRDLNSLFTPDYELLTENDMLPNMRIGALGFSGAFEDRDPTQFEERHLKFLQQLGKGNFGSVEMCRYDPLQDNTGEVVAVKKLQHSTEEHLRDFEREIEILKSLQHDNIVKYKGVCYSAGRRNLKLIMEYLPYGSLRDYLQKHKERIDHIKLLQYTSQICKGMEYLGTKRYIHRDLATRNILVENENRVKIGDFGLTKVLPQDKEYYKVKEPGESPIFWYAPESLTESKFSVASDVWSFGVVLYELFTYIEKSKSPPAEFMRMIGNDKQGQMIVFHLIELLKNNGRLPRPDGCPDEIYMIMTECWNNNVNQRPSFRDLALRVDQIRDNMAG

SH2 binding enrichment (SHP2-C SH2)	SH2 binding enrichment (c-Src SH2)	SH2 binding enrichment (Grb2 SH2)	Sequence	phosphorylation enrichment (Jak2)	phosphorylation enrichment (c-Abl (mouse))	phosphorylation enrichment (Hck)	phosphorylation enrichment (Fer (mouse))	phosphorylation enrichment (FGFR1)	phosphorylation enrichment (c-Src)	phosphorylation enrichment (EPHB2)	phosphorylation enrichment (AncSZ)	phosphorylation enrichment (EPHB1)	phosphorylation enrichment (Fyn)	phosphorylation enrichment (MERTK)	phosphorylation enrichment (Fes)	phosphorylation enrichment (FGFR3)
0.73	0.444	0.83	SIVEDYRPPFF [ACVRL1_Y421_G416S_YF]	0.85	0.821	0.38	0.485	0.435	0.45	0.46	1.01	0.578	0.378	0.473	1.01	0.646
1.17	1.32	1.38	SKKVRYVVSKA [BARD1_Y156]	0.482	0.538	0.372	0.36	0.292	0.341	0.334	0.474	0.309	0.366	0.312	0.569	0.402
0.813	0.508	1.01	SLDHPFEKPRK [INAVA_Y333_Y333F]	0.663	0.61	0.376	0.3	0.388	0.436	0.433	0.589	0.317	0.721	0.365	0.749	0.524
1.37	1.02	1.58	SLFQFYFQQKG [CHKB_Y381_R377L]	1.43	0.932	0.488	0.612	0.521	0.425	0.568	1.35	0.657	0.397	0.403	1.42	0.833
0.737	1.6	0.777	SLIDMYSKVLD [OPA1_Y268_E270K]	0.814	0.482	0.497	0.501	0.479	0.478	0.57	0.953	0.462	0.421	0.481	1.02	0.637
0.925	0.643	1.08	SLQFEYVHFGG [CDC14A_Y591_S589F_YF]	1.12	0.781	0.557	0.367	1.47	0.604	0.682	1.25	0.612	0.548	0.426	1.29	1.33
0.602	0.533	0.732	SLTGAYASGIP [POM121C_Y378_T379A]	0.904	0.647	0.575	0.453	0.519	0.482	0.43	0.627	0.518	0.478	0.436	0.906	0.602
0.452	0.438	0.806	SLTRLYVGENA [NLRP3_Y861]	0.494	0.496	0.554	0.444	0.485	0.357	0.521	0.725	0.357	0.424	0.34	0.703	0.517
0.553	0.432	0.599	SLVGCYNLTFM [HS6ST3_Y323]	1.39	1.12	0.745	1.29	0.589	0.794	0.868	1.42	0.694	0.694	0.498	1.56	0.95
1.33	3.04	0.936	SMGHRYIEVFR [HNRNPF_Y82_K87R]	0.688	0.514	0.453	0.483	0.53	0.367	0.576	0.622	0.451	0.335	0.474	0.691	0.506
0.506	0.655	0.705	SNKELYEKYMI	0.616	0.487	0.871	7.5	0.482	0.96	0.62	0.896	0.652	0.593	0.597	0.802	0.579
3.05	1.11	1.52	SPYMLYQYLKQ [RPAP3_Y567_D564Y]	2.23	3.63	7.66	10.6	5.62	5.57	11.4	1.39	14.1	4.34	9.38	1.24	4.11
0.644	0.466	0.881	SQQTFYPVSNM [ABCD1_Y181_R182P_YF]	0.598	0.57	0.407	0.318	0.507	0.398	0.49	0.706	0.387	0.419	0.374	0.654	0.513
0.691	0.344	0.685	SREDIYKRNTE [PDE4DIP_Y45_I49T]	0.81	0.898	0.429	0.463	0.411	0.451	0.416	0.8	0.62	0.409	0.374	1.05	0.696

Sequence	SH2 binding enrichment (SHP2-C SH2)	SH2 binding enrichment (c-Src SH2)	SH2 binding enrichment (Grb2 SH2)	phosphorylation enrichment (Jak2)	phosphorylation enrichment (c-Abl (mouse))	phosphorylation enrichment (Hck)	phosphorylation enrichment (Fer (mouse))	phosphorylation enrichment (FGFR1)	phosphorylation enrichment (c-Src)	phosphorylation enrichment (EPHB2)	phosphorylation enrichment (AncSZ)	phosphorylation enrichment (EPHB1)	phosphorylation enrichment (Fyn)	phosphorylation enrichment (MERTK)	phosphorylation enrichment (Fes)	phosphorylation enrichment (FGFR3)
SIKDKYLTALF [KCNH2_Y611_V612L_YF]	0.778	0.674	1.07	0.665	0.468	0.414	0.484	0.481	0.394	0.449	0.724	0.435	0.448	0.408	0.784	0.572
SRGHQYQELPR [KCNH2_Y1009_R1007H]	0.807	5.11	1.04	0.721	0.589	1.06	0.413	0.609	0.35	0.602	0.527	0.466	0.487	0.576	0.672	0.464
